B1: HA-tagged SREBF1 (wild type), expressed in C4-2B cells [not stated] / KAT2A/GCN5, endogenous [human (endogenous in C4-2B, LAPC4)] (parent)
chain 1: MDEPPFSEAALEQALGEPCDLDAALLTDIEDMLQLINNQDSDFPGLFDPPYAGSGAGGTDPASPDTSSPGSLSPPPATLSSSLEAFLSGPQAAPSPLSPPQPAPTPLKMYPSMPAFSPGPGIKEESVPLSILQTPTPQPLPGALLPQSFPAPAPPQFSSTPVLGYPSPPGGFSTGSPPGNTQQPLPGLPLASPPGVPPVSLHTQVQSVVPQQLLTVTAAPTAAPVTTTVTSQIQQVPVLLQPHFIKADSLLLTAMKTDGATVKAAGLSPLVSGTTVQTGPLPTLVSGGTILATVPLVVDAEKLPINRLAAGSKAPASAQSRGEKRTAHNAIEKRYRSSINDKIIELKDLVVGTEAKLNKSAVLRKAIDYIRFLQHSNQKLKQENLSLRTAVHKSKSLKDLVSACGSGGNTDVLMEGVKTEVEDTLTPPPSDAGSPFQSSPLSLGSRGSGSGGSGSDSEPDSPVFEDSKAKPEQRPSLHSRGMLDRSRLALCTLVFLCLSCNPLASLLGARGLPSPSDTTSVYHSPGRNVLGTESRDGPGWAQWLLPPVVWLLNGLLVLVSLVLLFVYGEPVTRPHSGPAVYFWRHRKQADLDLARGDFAQAAQQLWLALRALGRPLPTSHLDLACSLLWNLIRHLLQRLWVGRWLAGRAGGLQQDCALRVDASASARDAALVYHKLHQLHTMGKHTGGHLTATNLALSALNLAECAGDAVSVATLAEIYVAAALRVKTSLPRALHFLTRFFLSSARQACLAQSGSVPPAMQWLCHPVGHRFFVDGDWSVLSTPWESLYSLAGNPVDPLAQVTQLFREHLLERALNCVTQPNPSPGSADGDKEFSDALGYLQLLNSCSDAAGAPAYSFSISSSMATTTGVDPVAKWWASLTAVVIHWLRRDEEAAERLCPLVEHLPRVLQESERPLPRAALHSFKAARALLGCAKAESGPASLTICEKASGYLQDSLATTPASSSIDKAVQLFLCDLLLVVRTSLWRQQQPPAPAPAAQGTSSRPQASALELRGFQRDLSSLRRLAQSFRPAMRRVFLHEATARLMAGASPTRTHQLLDRSLRRRAGPGGKGGAVAELEPRPTRREHAEALLLASCYLPPGFLSAPGQRVGMLAEAARTLEKLGDRRLLHDCQQMLMRLGGGTTVTSS
chain 2: MAEPSQAPTPAPAAQPRPLQSPAPAPTPTPAPSPASAPIPTPTPAPAPAPAAAPAGSTGTGGPGVGSGGAGSGGDPARPGLSQQQRASQRKAQVRGLPRAKKLEKLGVFSACKANETCKCNGWKNPKPPTAPRMDLQQPAANLSELCRSCEHPLADHVSHLENVSEDEINRLLGMVVDVENLFMSVHKEEDTDTKQVYFYLFKLLRKCILQMTRPVVEGSLGSPPFEKPNIEQGVLNFVQYKFSHLAPRERQTMFELSKMFLLCLNYWKLETPAQFRQRSQAEDVATYKVNYTRWLCYCHVPQSCDSLPRYETTHVFGRSLLRSIFTVTRRQLLEKFRVEKDKLVPEKRTLILTHFPKFLSMLEEEIYGANSPIWESGFTMPPSEGTQLVPRPASVSAAVVPSTPIFSPSMGGGSNSSLSLDSAGAEPMPGEKRTLPENLTLEDAKRLRVMGDIPMELVNEVMLTITDPAAMLGPETSLLSANAARDETARLEERRGIIEFHVIGNSLTPKANRRVLLWLVGLQNVFSHQLPRMPKEYIARLVFDPKHKTLALIKDGRVIGGICFRMFPTQGFTEIVFCAVTSNEQVKGYGTHLMNHLKEYHIKHNILYFLTYADEYAIGYFKKQGFSKDIKVPKSRYLGYIKDYEGATLMECELNPRIPYTELSHIIKKQKEIIKKLIERKQAQIRKVYPGLSCFKEGVRQIPVESVPGIRETGWKPLGKEKGKELKDPDQLYTTLKNLLAQIKSHPSAWPFMEPVKKSEAPDYYEVIRFPIDLKTMTERLRSRYYVTRKLFVADLQRVIANCREYNPPDSEYCRCASALEKFFYFKLKEGGLIDK

In the test the parent is B1. Nature of the test: co-immunoprecipitation (anti-HA affinity gel, immunoblot with KAT2A antibody), band quantification. The settings on record: with KAT2A/GCN5, endogenous [human (endogenous in C4-2B, LAPC4)]; C4-2B cells; + Abi; parent: 1. (In general: A western blot detects proteins with antibodies after separation by electrophoresis.)
Consider chain 1 Y673A Y951A, for which the response amounted to 0.01.

The record behind these values is PMC10256812.
